assay: yeast display, Sf9 membrane polyspecificity reagent, FACS + sequencing; frameworks hold sequencing errors
How it was run: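 Using colony PCR, genes from sorted yeast display clones were amplified, then sequenced on MiSeq at 2 × 250 and filtered by CDR length. The clones had been stained with 10% biotinylated, detergent-solubilized Sf9 membrane reagent for 1 hour at 4 °C and sorted by FACS into low and high (top ~1%) gates on anti-HA and streptavidin fluorescence. Polyreactivity labels come from the gate of origin.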

| Sequence | polyreactivity (PSR sort gate) |
| --- | --- |
| QVQLVESGVGLVQAGGSLRLSCAASGITFTSYAMGWYRQAPVKERELVAAISSSGVRTYYADSVKGRFTISRDNSKNTVYLQMNSLKPEDTAVYYCATRRRVLYGYDYWGQGTQVTVSS | high polyreactivity |
| QVQLVESGVGLVQAGGSLRLSCAASGITFVDYGMGWYRQAPGKERELVSAISRSGGSTYYADSVKGRFTISRDNAKNTVYLQMNSLKPEDTAVYYCATVLSRVRNSDKYWGQVTQVTVSS | high polyreactivity |
| QVQLVESGVGLVQAGGSLRLSCAASGITFVGYAMGWSRQAPGKERELVASITRGGGSTYYADSVKGRFTISRDNAKNTVYLQMNSLKPEDTAVYYCAARSHSTYYYWGQGTQVTVSS | high polyreactivity |
| QVQLVESGVGLVQAGGSLRLSCAASGITISYYSKGWSRQEPGKEREFVAAISWSVGSTYYADSVKGRFTISRDNAKNTVYLQMNSLKPEDTAVYYCAAEDGYWPTYYYWGQGTQVTVSW | high polyreactivity |
| QVQLVESGVGLVQAGGSLRLSCAASGLIFASNSMGSYRQAPGKEREFVAAITSSGGSTYYADSVKGRFPISRDNAKNTVYLQMNSLKPEDTAVYYCAADLYGAWWYTYGRYYYWGQGTQVTVSS | low polyreactivity |
| QVQLVESGVGLVQAGGSLRLSCAASGLILRKYAKGWYSQAPGKEREFVAAITQTGSRTYYADSVKGRFTISRDNAKNTVYLQMNSLKPEDTAVYYCNAVNYRSSRDSGYWGQGTQVTVSS | high polyreactivity |
| QVQLVESGVGLVQAGGSLRLSCAASGLTFGWYAMGWYRQAPGKERELVASITRRSGSTYYADSVKGRFTISRDNAKNTVYLQMNSLKPEDTAVYYCAARSRGTTRFDFWGQGTQVTVSW | high polyreactivity |
| QVQLVESGVGLVQAGGSLRLSCAASGLTFLWYAMGWYRQAPGKERELVAAITSGGRTKYADSVKGRFTISRDNAKNTVYLQMNSLKPEDTAVYYCAAYTQWWGYDYWGQGTQVSVSS | high polyreactivity |
| QVQLVESGVGLVQAGGSLRLSCAASGLTFPWYTMGWNRQAPGKERELVAAINSRGGSTYYADSVKGRFTISRDNAKNTVYLQMNRLKPVDTAVYYCATRSFGRMDYWGQGTQVTVSS | high polyreactivity |
| QVQLVESGVGLVQAGGSLRLSCAASGRIFATNAMGWYRQAPGKERELVATITRSAGRTYYADSVKGRFTISRDNAKNTVYLQMNSLKPEDTAVYYCAASYWDTEPGYREYDYWGQGTQVTVSS | low polyreactivity |
| QVQLVESGVGLVQAGGSLRLSCAASGRIFERYAMGWYRQAPGKERELVAAIRSGGSTKYADSVKGRFTISRGNAKNTVYLQMNSLKPEDTAVYYCAAVIHYGDGYWGQGTQVTVSS | low polyreactivity |
| QVQLVESGVGLVQAGGSLRLSCAASGRIFFNNAMGWYIQAPGKERELVAGITSGSSTNYADSVKGRFTISRDNAKNTVYLQMNSLKPEDTAVYYCNAGDFERDVVVFIQHGGYYWGQGTQVTVSS | low polyreactivity |
| QVQLVESGVGLVQAGGSLRLSCAASGRIFGFYAMGWYRQAPGKESELVAAITVSGSSTRYADSVKGRFTISRDIAKNTFYLQMNSLKPEDTGVYYCAAFNRCSGGFDYWGQGTQVTVSS | high polyreactivity |
| QVQLVESGVGLVQAGGSLRLSCAASGRIFIDYAMGWYRQAPGKERELVATISESGGSTYYADSVKGRFTISRDNAKNTVYLQMNSLKPEDTAVYYCAVDDRYGTVYFYTKFDYWGQGTQVTVSS | low polyreactivity |
| QVQLVESGVGLVQAGGSLRLSCAASGRIFRPYAMGWYRQAPGKERELVAAITQSGGITSYADSVKGRFTISRDNAKNTVYLQMNSLKPEDTAVYYCATTSRYTRSHYDWYDYWGQGTQVTVSS | low polyreactivity |
| QVQLVESGVGLVQAGGSLRLSCAASGRIFRWYAMGWYRQAPGKERELVASITWNGGSTYYADSVKGRFTISRDNAKNTVYLQMNSLKPEDNAVYYCAVPFYRGPEMGYWGQGTQVTVSS | high polyreactivity |
| QVQLVESGVGLVQAGGSLRLSCAASGRIFYRNAMGWYRQAPGKERELVAAISYSGGRTYYADSVKGRFTISRDNAKNTVYLQMNSLKPEDTAVYYCAARYAWGYVDPGDYWGQGTQVTVSS | high polyreactivity |
| QVQLVESGVGLVQAGGSLRLSCAASGRTFAYYAMGWNRQAPWKERELVARITSDGSTYYADSVKGRFTISRDNAKNTVYLQMNSLIPEDTAVYYCNARWRYKWKYDHWGQGTQVTVSS | low polyreactivity |
| QVQLVESGVGLVQAGGSLRLSCAASGRTFFGYAMGWYRQAPGKEREFVASISKRGGRTYYADSVKGRFTISRDNAKNSVYLQMNSLKPEDTAVYYCNAYESYPDPLTMEYWGQGTQVTVSS | high polyreactivity |
| QVQLVESGVGLVQAGGSLRLSCAASGRTFSYYAMGWSRQAPGKERELVAAITSSGGSTYYADSVKGRFTISRDNAKNTVYLQMNSLKPEDTAVYYCAAEIWYYLWTTFERKYDYWGQGTQVTVSS | low polyreactivity |
| QVQLVESGVGLVQAGGSLRLSCAASGRTFTPYAMGWYRQAPGKEREFVAAISIVGRTKYADSVKGRFTISRDNAKNTVYLQMNSLKPEDTAVYYCNAQDSRDRKFYWGYTRGHWGLGTQVTVSS | low polyreactivity |
| QVQLVESGVGLVQAGGSLRLSCAASGRTFVGNAMGWYRQAPGKERELVAAISVSGGSTYYADSVKGRFTISRDNAKNTVYVQMNSLKPEDTAGYYCAADGYYNRYGYRTSDESEYWGQGTQVTVTS | low polyreactivity |

| Sequence | polyreactivity (PSR sort gate) |
| --- | --- |
| QVQLVESGVGLVQAGGSLRLSCAASGRTFVNNAMGWYRQAPGKERELVAAISQSGSRTYYADSVKRRFTISRDNAKNTVYLQMNSLKPEDTAVYYCAARGARYSTSDYWGQGTQVTVSS | high polyreactivity |
| QVQLVESGVGLVQAGGSLRLSCAASGRTFYVYAMGWYRQAPGKERELVAAISLGGGSTYYADSVKGRFTNSRDNGKNTVYLQMNSLKPEDTAVYYCAADITRYRLGRDYWGQATQVTVSS | low polyreactivity |
| QVQLVESGVGLVQAGGSLRLSCAASGRTSAQYGMGWYRQAPGKERELVATITTSGGRTYYADSVKGRFTISRDTAKNTVYLQMNSLKPEDTAVYYGAAEGWTTPTPTSDDNQWWYDYWGQGTQVTVSS | high polyreactivity |
| QVQLVESGVGLVQAGGSLRLSCAASGSIFASYTMGWYIQAPGKERELVAAINRSGGSTYYADSVKGRFTISRDNAKNTVYFQMNSLKPDDTAVYYCAAGYIRRYYGYDYWGQGTQVTVSS | high polyreactivity |
| QVQLVESGVGLVQAGGSLRLSCAASGSIFDINAMGWYRQAPGKERELVAVITDSGSTYYADSVKGRFTISRDNAKNTVYLQMNSLKPEDTAVYYCAAESSLLFFLMDYWGQGTQVTVSS | low polyreactivity |
| QVQLVESGVGLVQAGGSLRLSCAASGSIFGVNMGWYRQAPGKERELVASITSGGSTNYADSVKGRFTISRDNAKNTVYLQMNSLKPEDTAVYYCATDRYVWGQGTQVTVSS | low polyreactivity |
| QVQLVESGVGLVQAGGSLRLSCAASGSIFKYYAMGWYRQAPGKERELVAAISSNGGRTYYADSVKGRFTISRDNAKNTDYLQMNSLKPEDTAVYYCARRYRRTGESEYDYWGQGTQVTVSS | high polyreactivity |
| QVQLVESGVGLVQAGGSLRLSCAASGSIFQYNAMGWYRQAPGKERELVAAITSTGDTNYADSVKGRFTISRDNAKNTVYLQMNSLKAEDTAVYFCAADVYGTVRRVGWYYVGEGYDYWGQGTQVTVSS | low polyreactivity |
| QVQLVESGVGLVQAGGSLRLSCAASGSIFWQNTMGGYRPAPGKERELVATITSAGSTYYADSVKGRFTISRDNAKNTVSLQMNSLKPEDTAVYYGAKGHHPGHVFHPDYGYDYWGQGTQVTVSS | low polyreactivity |
| QVQLVESGVGLVQAGGSLRLSCAASGSIFYNYAMGWYRQAPGKEREFVAAISWSGDTTYYADSVKGRFTISRDNAKNTVYLQMNSLKPEDTAVYYCAAESYIWFWRPYYYWGQGTQVTLSS | low polyreactivity |
| QVQLVESGVGLVQAGGSLRLSCAASGSILDYYVMGWYRQAPGKDRELVAAIRGGGSTYYADSVKGRFTFSRDNEKNTVYLQMNSLKPEDTAVYYCAKDSQTARDFDYSGQGTQVTVSS | low polyreactivity |
| QVQLVESGVGLVQAGGSLRLSCAASGSILSKNAMAWYREAPGNERELVAAITWSGGSTYYADSVKGRFTISRDNEKNTVYLQMNSLKPEDTAVSYCAADLDWSPHFGLPYDYWGQGTQVTVSS | low polyreactivity |
| QVQLVESGVGLVQAGGSLRLSCAASGSTFDVYDMGWYRQAPGKERELVASISWDGDRTYYADSVKGRFTISRDNAKNTVYLQMKSLKPEDTAVYYCAATLRPYSSFPNRYGYWGQGTQVSVSS | low polyreactivity |
| QVQLVESGVGLVQAGGSLRLSCAASGSTFGGNAMGWYRQAPWKERELVADITFSGGSTSYAHSVKGSFTISRDNAKNTVYLLMNRLKPEDTAVYYCNRDYPEIIVAGLDFWGQGTQLTVSS | low polyreactivity |
| QVQLVESGVGLVQAGGSLRLSCAASGSTFITYAMGWYRQAPGKERELVAAISTGGSTYYADSVKGRFTISRDNAKNTVYLQMNSLKPEDTAVYYCNAYSSSRGSTLQYSLQYDYWGQGTQVTVSS | low polyreactivity |
| QVQLVESGVGLVQAGGSLRLSCAASGSTFLTNAMGWNRQAPGKERELVAAINWRGDSTYYADSVKGRFTISRDNAKNTVYLQMNSLKPEDTAVYYCAAKYNHVTDEYDYWGQGTQVTVSS | high polyreactivity |
| QVQLVESGVGLVQAGGSLRLSCAASGSTFQWYAMGWYIQAPGKERELVAAINKSGGTTYYADSVKGRFTISRDNAKNTVYLLMNSLKPEDTAVYYCATDTPVVYQPGNMDYWGQGTQVTVSS | low polyreactivity |
| QVQLVESGVGLVQAGGSLRLSCAASGSTFRGYAMGWYRQAPGKERELVAAISSSGGRTYYAYSVKGRFTISRDNAKNTVYLQMNSLKPEDTAVYYCNAASKNSVRYAYQNYDYWGQGTQVTVSS | high polyreactivity |
| QVQLVESGVGLVQAGGSLRLSCAASGYTFRTNVMGWYRQAPGKERELVATINWRGGSTYYADSVKGRFTISRDNAKNTVYLQMNSLKPEDTAVYYCAADPGPYYDWGYDYWGQGTQVTVSS | low polyreactivity |
| QVQLVESGVGLVQAGGSLRLSCADSGSNFRYTMGCYRQAPWKERELVAAINRGASTYYADSVKGRFTISRDNAKKTVYLQMNSLKPVDNAVYYCAASVGTQGYHGDYWGQGTQVTVSS | high polyreactivity |
| QVQLVESGVGLVQAGGSLRLSCAGSGFNFIANAMGWYRQAPGKERELVAAISDGGSTYYADSVKGRFTISRDNAKNTVYLQMNSLKPEDTAVYYCAKDVTWAGHYDYWGQGTQVTVSS | low polyreactivity |

— the nanobody polyreactivity screen of Harvey et al. (2022)
